Test results from a protein production outcome set (Wang et al. 2014).

Assay: label from the status in PepcDB records

Sequence	protein production
MRRLLITILIFLLSNAGCCAPVFEIIPLGVYGGLKDGNLSAYLIKAIESKNYTALDGGTLVRGLEVAVDRQSLPSKKVDDLLQKHIPAYLISHAHLDHVMGLVMAQPELREKQTIMAREETMQALQDNIFNWSVWGNFGDSGAIPHLNFQHYQTLPLLQWLAIPDTDLHVKVFPLSHSGMASSAFLIRYKTEYALYFGDTGADRIEKSTNMENIWKEIAPLIRNKQLHAIMLECSFLNSQPDDKLFGHLKPNLFMSELRHLASIVDPFDSRNSLRGLPVVVTHIKPKLADFSNTNEDTEKQVINELSQENDIGVELIKPEQGITLSL	failed
MRRLPTFGWALLVSIWAGLVGGAVIREPSVDLVPLYAVICQLLGLIAAYGTMRERSHILESVHRPGRVGMFIIILFFVMVPLTTVFALVLGDASVAGVATQWVSYLVGLGIALYVAFAGGFDRAWEKYT	failed
MRRLRFSPRSSFARTLLLIVTLLFASLVTTYLVVLNFAILPSLQQFNKVLAYEVRMLMTDKLQLEDGTQLVVPPAFRREIYRELGISLYSNEAAEEAGLRWAQHYEFLSHQMAQQLGGPTEVRVEVNKSSPVVWLKTWLSPNIWVRVPLTEIHQGDFSPLFRYTLAIMLLAIGGAWLFIRIQNRPLVDLEHAALQVGKGIIPPPLREYGASEVRSVTRAFNHMAAGVKQLADDRTLLMAGVSHDLRTPLTRIRLATEMMSEQDGYLAESINKDIEECNAIIEQFIDYLRTGQEMPMEMADLNAVLGEVIAAESGYEREIETALYPGSIEVKMHPLSIKRAVANMVVNAARYGNGWIKVSSGTEPNRAWFQVEDDGPGIAPEQRKHLFQPFVRGDSARTISGTGLGLAIVQRIVDNHNGMLELGTSERGGLSIRAWLPVPVTRAQGTTKEG	failed
MRRLVLAALLAATSLTTAKAGDLLIHGGPIHTGVEAAPTAEAVLIRDDKILFVGPLAAAKAKAAKDVRAIDLKGAAAYPGFVDAHAHLTGIGLRELTLNLDQVKSVAELVAAVKAYAAAHPEGPISGRGWIETHWPEKRFPTKADLDAAAPGRIVVLGRSDGHASVASSAALAKAGITAATVPPPGGDILKGPDGQPDGMLIDHAQALVRNVIPPPNQALKREALRKAGQLYAARGWTGMANMSVMAEDLSLLRDEAAKGNFHIRIDNYMDPSGAEEVLTKGPQTDATGLIRVQGIKLYMDGALGSRGAALLEPYSDADTLGLQLTQPEQGLALMKRAKAAGAQVAMHAIGDRGNRLVLDWFEQSLGAEAKAARWRNEHSQIVADTDVPRFAKLGVIASMQPSHAIGDLFFAPARLGKARLHEGYRWADFLKADVVVAAGSDAPVEVGDPRIEFYAAVYRHSLDGFANADWHLDQAVSRAEALKMLTLAPAYAVFREKELGTLEAGKKADVTAFDRDLMTVEPKAILTAQPVLTVVDGKVVYSR	failed
MRRNTALTRIMASGVAAIMLCAGGTFTVNAAEEEPVKADVSVKAIQGLSDDFIGGMDVSSMLSLEESGVTFKNANGEVEDLFTLLKESGVNYVRLRVWNDPFTADGQGYGGGNVNADRALTMAKRATAAGLKVLVDFHYSDFWADPSKQQVPKAWKSFEGDADKTADTVYDYTKQTLTTFKQAGVDVGMVQVGNETTAKIAGISGWDGMSKVFSAGSKAIREVLPEAKVVIHFTNPEKAGTYATYAKQLSNHNVDYDVFASSYYPFWHGTTENLTSVLKNVASTYKKDVMVAETSWAYTLDDGDDDSNTVPSKVTADNLKKYDISPQGQADEIRAVAEAVNNIGDNDGDGENDGLGVFYWEPAWVPVGTGGKDNAELVDTWNKYGGGWATEAAGEYDPNDAGLYWGGSGVDNQALFDFDGKALASLPTFKYIHTGAVTDHVFTKIDPVEITATDSDSIDAIKAQLPSEVAAHYQDGVDETETVTWQSAALDWIRGAGTYTITGTTNAGHDVTVTVTVTATPAKDYVTDGSFENAENDKNWTIAGTGASITEDSGNAADGKRALKFWASDAYSFSATQTITGLEPGEYVLTAMSQGAAADNAAITDGVALSATTGGKTTSDALELNGWVKFDTATVPVTVGADGTATITITGNLPADAWGNVDKVSLVKKTETPVKPSTENLDKAVAEAGKINRDEYTNESLAKLDQALAAADVLLAGSTYTEQDVNDVIKLVADAIAGLAQKEVSSLTVTPSKTTYQVGDAIDADHDLKVVGNYSAGMGNVTLSADQFTLDYDFSAPADAAKVTVTLKSNPNVTETYTVAVTARAEGGSGNGSDGAGNGGATINPDTGEGDKTNGANGDKITGVLSNTGSAVTAVGLAVVVLGVAGGVSLALRRKRS	failed
MRRREGHGTDSEMGQGPVRESQSSDPPALQFRISEYKPLNMAGVEQPPSPELRQEGVTEYEDGGAPAGDGEAGPQQAEDHPQNPPEDPNQDPPEDDSTCQCQACGPHQAAGPDLGSSNDGCPQLFQERSVIVENSSGSTSASELLKPMKKRKRREYQSPSEEESEPEAMEKQEEGKDPEGQPTASTPESEEWSSSQPATGEKKECWSWESYLEEQKAITAPVSLFQDSQAVTHNKNGFKLGMKLEGIDPQHPSMYFILTVAEVCGYRLRLHFDGYSECHDFWVNANSPDIHPAGWFEKTGHKLQPPKGYKEEEFSWSQYLRSTRAQAAPKHLFVSQSHSPPPLGFQVGMKLEAVDRMNPSLVCVASVTDVVDSRFLVHFDNWDDTYDYWCDPSSPYIHPVGWCQKQGKPLTPPQDYPDPDNFCWEKYLEETGASAVPTWAFKVRPPHSFLVNMKLEAVDRRNPALIRVASVEDVEDHRIKIHFDGWSHGYDFWIDADHPDIHPAGWCSKTGHPLQPPLGPREPSSASPGGCPPLSYRSLPHTRTSKYSFHHRKCPTPGCDGSGHVTGKFTAHHCLSGCPLAERNQSRLKAELSDSEASARKKNLSGFSPRKKPRHHGRIGRPPKYRKIPQEDFQTLTPDVVHQSLFMSALSAHPDRSLSVCWEQHCKLLPGVAGISASTVAKWTIDEVFGFVQTLTGCEDQARLFKDEARIVRVTHVSGKTLVWTVAQLGDLVCSDHLQEGKGILETGVHSLLCSLPTHLLAKLSFASDSQY	failed
MRRSRRAALAACLILAIAATPGAVLAQTVDELYASAVKARQARHFDEAVDLLRRALALKPDNADALVQLGFAELGRNDLAAARDAFSKALSLAPTYQDASFGLAEIEFRSGNLDAALPLAESVARAQPGNTDAAALVENIRKAMQAAGGEARKASVAAPRAKPRPDPVAGLMEQGRRLRTAGKLPEAEKVYRRALGLAPKNTDILVALGLIVGSSQRFDEAGHFFDRALAIKPGLLDARIGKIRMAIWQGDVPSARALVDDVLASSPDNVEALDLDAKVALLEADYTRAGQSFQRVLAIDPRNAEALVGIGDVRRAQGDDDAARQAYREALAIEPGSSDIEQRLAVPPPRKWRLDLGTEVSDLTNGLSDWTDSSAGLAYRLSPRTTISGRTRVATRFGRTDVQIEGRIDEAFSPAFSAYAFAAATPDADFLARYSIGAGASLQVMAAAKAFGPLSLNIDTRYDNFTNTNVTSVSPWVQGYIFDGRLGLSARWVHAADDIGTRADGYVLRVDLAMAQRFNLFGGYADAPEISDGTLVPTRTVFGGISWDVNDPLTLRASIAHEQRPTFDRSIFGLGLTARF	failed
MRRTRRPRFVLMNKMDDLNLHYRFLNWRRRIREIREVRAFRYQERFKHILVDGDTLSYHGNSGEVGCYVASRPLTKDSNYFEVSIVDSGVRGTIAVGLVPQYYSLDHQPGWLPDSVAYHADDGKLYNGRAKGRQFGSKCNSGDRIGCGIEPVSFDVQTAQIFFTKNGKRVGSTIMPMSPDGLFPAVGMHSLGEEVRLHLNAELGREDDSVMMVDSYEDEWGRLHDVRVCGTLLEYLGKGKSIVDVGLAQARHPLSTRSHYFEVEIVDPGEKCYIALGLARKDYPKNRHPGWSRGSVAYHADDGKIFHGSGVGDPFGPRCYKGDIMGCGIMFPRDYILDSEGDSDDSCDTVILSPTARAVRNVRNVMYLHQEGEEEEEEEEEEEDGEEIEPEHEGRKVVVFFTRNGKIIGKKDAVVPSGGFFPTIGMLSCGEKVKVDLHPLSG	not failed
MRRYRTCDNPPPSNGGRACGGPDSQIQRCNTDMCPVDGSWGSWHSWSQCSASCGGGEKTRKRLCDHPVPVKGGRPCPGDTTQVTRCNVQACPGGPQRARGSVIGNINDVEFGIAFLNATITDSPNSDTRIIRAKITNVPRSLGSAMRKIVSILNPIYWTTAKEIGEAVNGFTLTNAVFKRETQVEFATGEILQMSHIARGLDSDGSLLLDIVVSGYVLQLQSPAEVTVKDYTEDYIQTGPGQLYAYSTRLFTIDGISIPYTWNHTVFYDQAQGRMPFLVETLHASSVESDYNQIEETLGFKIHASISKGDRSNQCPSGFTLDSVGPFCADEDECAAGNPCSHSCHNAMGTYYCSCPKGLTIAADGRTCQDIDECALGRHTCHAGQDCDNTIGSYRCVVRCGSGFRRTSDGLSCQDINECQESSPCHQRCFNAIGSFHCGCEPGYQLKGRKCMDVNECRQNVCRPDQHCKNTRGGYKCIDLCPNGMTKAENGTCIDIDECKDGTHQCRYNQICENTRGSYRCVCPRGYRSQGVGRPCMDIDECENTDACQHECKNTFGSYQCICPPGYQLTHNGKTCQDIDECLEQNVHCGPNRMCFNMRGSYQCIDTPCPPNYQRDPVSGFCLKNCPPNDLECALSPYALEYKLVSLPFGIATNQDLIRLVAYTQDGVMHPRTTFLMVDEEQTVPFALRDENLKGVVYTTRPLREAETYRMRVRASSYSANGTIEYQTTFIVYIAVSAYPY	failed
MRSATDLLDELNAVDESARIEAKRASDMGKSVMETVIAFANEPGLDGGYLLLGVDWAINDKGDTVYRPVGLPDPDKVQRDLASQCASMLNVALRPEMQLEQVGGKTLLVVYVPEADVTHKPIYKKATGLPGGAYRRIGSSDQRCVDEDLWVLRGLEHHHHHH	not failed
MRSGRPLYWIFLLLAFSLLAVLVYVCVAVIPDLRNHPNARRSLKRVRSTLDPQREQRDASRRLDVADTPENRRQLAETLLARGDYAQAAEHYQGALRGLYRDDPHLMLGLAKAQFGLGQPQQTRQTLDALIAANPSFRSHDGHLLYARAVEGSGDTDAALHEYDTLAQGYPGEEARVRYAQLLQRIARNDQARAVYEQVLRHAAASPKHYQREQRAWVDLARKGLRELDTGA	failed
MRSLMATRAKPNKKQNASARGKKPAWLGGIGLRQVRMFCGLVLFTYLLSHFLNHALGNISPEALHAGVLWHLEIWQFLPVAILFYGSVTVHAGLGLWALYQRRQFRWKTLEPLQLVLGLSVPLMIYSHVIVMRLGNVLYDQDRLYPQVLYNYFVASPSYRAWLMVAVMLIAWTHGCIGLYVWLRIKPAFRRAMPWLLAAAVLIPTLALLGFYQGGRTVAREAASPQWQANNLAPANLGTPEQQQTLEAIGNGFLIFYLGLIALALIARAVRAIIERRGGMVRLTYDGERSIRVPKGLTVLEATQRHNIPHASACGGRARCSTCRIRVLGDPATLPPPSPREAFVLASIGTGDDPSIRLACQLKPTQDLTFLPVFPPRNVAAARKAARAARIGEERYLVSMFVDMRGSTKLAESRLPFDTVFIVNRFLGAVSRSVIACGGQPNQFVGDGMLALFGLAETPREACRNAVRAAAAIGAAIDELNNFLGHDLPEPIRFGIGIHSGEVVVGEIGYRDHMVFTALGDSVNVASRLQDMTKSLGCETLLSDELRATAGLSEQALPTLELEIRGRTEPMLVCVVERAGDLVAVLNEDLVLA	failed
MRSRGEPLPAGGRMKTLAFVALALAGISWGLGFPTGKLILRETDAAHMVLLRFLVAAVAAAPFALRRPEVRALFRSPIVLLAGALYGVAFLVQFEGLAHVSVTVAALLVGAMPALIAVSARVLGEKVSRLSWAGVAAATLGAALIAGKPDGASSPLGVALSIAALFLFLTWLLVLRRAPPAPNPMAIPAVSIIVAALVVLPIALIMHGPPKLALSAPAWTAIVAQGVLATLLATAAWQYGAAQVGAASAGVFINIEPLMGAACGVLLFGDHLTAALFAGGLLIIGGSFAVVMGERQAKPGEIQATVAPTP	failed
